Measured values as given in the RNAGym collection of RNA variant scans (doi:10.7554/elife.90254).

B1: LINE1-full (parent)
chain: UACGUAGGUGGUUUUCCCCUGAUAGUGCUAAGGGGGCCUGGAAGUUUGGACUGGGCAGAGCUCAACACAGCGUGGCAAAGUGGCUGUGGCUAGACUGCCUCUCUGGAUUCCUCGUCACUCAGCAGGGCAUCUCUGAGAGAAAUGCC

Variants of: B1
Assay: self-cleavage, relative activity (ratio to wild type); higher = more cleavage; in vitro, sequencing; the parent is a self-cleaving ribozyme
For G36A G89U, the self-cleavage was 0.01.
Work on U29A G72A yielded a self-cleavage of 1.13.
In the case of U108C A140G, the self-cleavage is reported as 1.74.
Work on U12A G35A yielded a self-cleavage of 0.98.
With A77G U96C the self-cleavage was 0.18.
U29C A64G showed a self-cleavage of 0.38.
In the case of U1A U12C, the self-cleavage is reported as 1.4.
A107G U115G gave a self-cleavage of 0.
In the case of U102G, the self-cleavage is reported as 0.71.
For U23C U132C, the self-cleavage was 1.58.
G35A U45C showed a self-cleavage of 0.97.
With A69G U104A the self-cleavage was 0.2.
Variant A57G U73A has a self-cleavage of 0.37.
Work on U112C C120U yielded a self-cleavage of 1.37.
In the case of U26A C116U, the self-cleavage is reported as 0.99.
C71U A124G showed a self-cleavage of 0.28.
For U26C G144C, the self-cleavage was 1.68.
Work on C95U U132C yielded a self-cleavage of 0.21.
In the case of A31G U108C, the self-cleavage is reported as 1.26.
C76U U132C showed a self-cleavage of 1.8.
In the case of U23A U73C, the self-cleavage is reported as 1.24.
Work on A2G A141G yielded a self-cleavage of 0.78.
Work on U14C C68A yielded a self-cleavage of 0.09.
G40U U134C showed a self-cleavage of 1.6.
For G53A U81C, the self-cleavage was 0.67.
Variant C3A U85A has a self-cleavage of 0.13.
Work on U9C A117G yielded a self-cleavage of 1.53.
For G35U U112C, the self-cleavage was 0.75.
U13A A69G gave a self-cleavage of 0.25.
Variant C51U U130C has a self-cleavage of 1.4.
In the case of G32A U115C, the self-cleavage is reported as 0.95.
Variant A22G U108C has a self-cleavage of 1.16.
In the case of A43U U130C, the self-cleavage is reported as 2.34.
With U12C A57U the self-cleavage was 0.22.
Work on A6G U47C yielded a self-cleavage of 0.53.
A50U G144A showed a self-cleavage of 1.37.
In the case of U45A A138U, the self-cleavage is reported as 1.31.
U73C A142U gave a self-cleavage of 1.24.
Variant U1C A43G has a self-cleavage of 0.79.
A59C A67G gave a self-cleavage of 0.
For U52A A117G, the self-cleavage was 1.43.
Work on U5C G8A yielded a self-cleavage of 0.24.
G35A A136G gave a self-cleavage of 1.21.
For U134G A136U, the self-cleavage was 1.72.
In the case of U20A G32C, the self-cleavage is reported as 1.33.
In the case of U26A A64U, the self-cleavage is reported as 0.23.
For G34C U115C, the self-cleavage was 1.82.
Variant U13A C37U has a self-cleavage of 0.72.
With U14C U87G the self-cleavage was 0.31.
Variant U14C U85G has a self-cleavage of 0.
Variant U39C U119G has a self-cleavage of 1.36.
With U47A G125C the self-cleavage was 1.49.
A57U G106U showed a self-cleavage of 0.09.
With C101A A124G the self-cleavage was 0.98.
Variant U109C U119A has a self-cleavage of 0.7.
Work on A77G U91C yielded a self-cleavage of 0.
Variant G48A A69C has a self-cleavage of 0.02.
U13A showed a self-cleavage of 0.98.
Work on G53A C61U yielded a self-cleavage of 0.03.
A22G C84U showed a self-cleavage of 0.24.
Variant G7A U115C has a self-cleavage of 1.21.
For G48U A117G, the self-cleavage was 1.13.
For U14C U46A, the self-cleavage was 1.4.
For C37G U45C, the self-cleavage was 1.6.
With G122C U134C the self-cleavage was 1.68.
Variant A77G G82U has a self-cleavage of 2.49.
C17U A140G showed a self-cleavage of 1.02.
Variant U96C U134G has a self-cleavage of 0.11.
Work on C84G A94U yielded a self-cleavage of 0.13.
Variant G41U U73C has a self-cleavage of 2.76.
C37G U91C gave a self-cleavage of 0.32.
Variant U85C G125U has a self-cleavage of 0.11.
Work on A2G C19U yielded a self-cleavage of 0.56.
For A24U A42G, the self-cleavage was 1.54.
A6U G54U gave a self-cleavage of 0.94.
In the case of A2G A69G, the self-cleavage is reported as 0.32.
For C19A U85A, the self-cleavage was 0.14.
Variant G36U A78G has a self-cleavage of 1.5.
With U9G C116G the self-cleavage was 1.18.
Variant C76U C99U has a self-cleavage of 0.99.
For A69U A136G, the self-cleavage was 0.06.
Work on U46A A121U yielded a self-cleavage of 1.43.
In the case of U96A U115C, the self-cleavage is reported as 0.05.
G72U A138G showed a self-cleavage of 1.55.
Variant U46A A141U has a self-cleavage of 1.01.
In the case of U13A U81C, the self-cleavage is reported as 0.85.
Work on C98U A138G yielded a self-cleavage of 1.15.
With U115A U132G the self-cleavage was 1.84.
U62C A124G gave a self-cleavage of 0.08.
With U1A A124G the self-cleavage was 1.16.
A2U U9A gave a self-cleavage of 0.86.
With G48U A129G the self-cleavage was 1.23.
With G54A A77G the self-cleavage was 1.02.
U39C A67G showed a self-cleavage of 0.35.
A43G A136C gave a self-cleavage of 1.18.
With A24U A69G the self-cleavage was 0.53.
For A24G A77C, the self-cleavage was 2.04.
With U52G A136G the self-cleavage was 0.88.
In the case of A78G A142G, the self-cleavage is reported as 1.21.
In the case of A65G C84G, the self-cleavage is reported as 0.17.
In the case of U52G U87G, the self-cleavage is reported as 0.59.
In the case of C110A A138G, the self-cleavage is reported as 0.95.
Variant A57G U115C has a self-cleavage of 1.3.
Variant U45C U62C has a self-cleavage of 0.07.
C98U A121U gave a self-cleavage of 0.38.
In the case of C28U U39C, the self-cleavage is reported as 0.97.
In the case of A124G C128U, the self-cleavage is reported as 0.53.
In the case of U45C A67G, the self-cleavage is reported as 1.08.
Work on A67C G135U yielded a self-cleavage of 0.05.
For A43U A107U, the self-cleavage was 1.81.
In the case of G33A A138U, the self-cleavage is reported as 1.19.
G105U gave a self-cleavage of 1.37.
G41A U104C showed a self-cleavage of 1.53.
For C3A G32A, the self-cleavage was 0.88.
Work on U52G A79G yielded a self-cleavage of 1.31.
U81C G105A gave a self-cleavage of 1.06.
Work on U15C U39G yielded a self-cleavage of 1.6.
G21U A92G showed a self-cleavage of 0.1.
In the case of U14A G114A, the self-cleavage is reported as 0.83.
For U26C C98U, the self-cleavage was 0.11.
With A43U A124G the self-cleavage was 0.71.
A77U A94U showed a self-cleavage of 0.2.
In the case of U47G A140G, the self-cleavage is reported as 0.71.
Work on U85C C99U yielded a self-cleavage of 0.07.
Variant U102A U109C has a self-cleavage of 1.31.
G27C U109C showed a self-cleavage of 0.92.
With G82A A94U the self-cleavage was 0.33.
With U73A G82A the self-cleavage was 1.74.
With U12C U26G the self-cleavage was 0.58.
A94C gave a self-cleavage of 0.06.
With U9A U20A the self-cleavage was 1.41.
With A50U A142G the self-cleavage was 1.01.
Variant U73A U81C has a self-cleavage of 1.09.
C51A U108A gave a self-cleavage of 1.31.
U9A A78G gave a self-cleavage of 1.13.
A30G G97A gave a self-cleavage of 0.42.
Work on U15C A22G yielded a self-cleavage of 1.24.
With A92C U132C the self-cleavage was 0.
U13A G40A showed a self-cleavage of 1.19.
Variant A59U U85A has a self-cleavage of 0.1.
In the case of G32C U104G, the self-cleavage is reported as 1.26.
In the case of U13A U20A, the self-cleavage is reported as 1.15.
For C76U C95U, the self-cleavage was 0.41.
With G36A G105A the self-cleavage was 1.46.
With G74U A94G the self-cleavage was 0.15.
Work on U1C G32U yielded a self-cleavage of 0.21.
With U102A A136G the self-cleavage was 1.78.
Variant U52C G114A has a self-cleavage of 1.24.
For U81C U130G, the self-cleavage was 1.84.
Work on U15A A77U yielded a self-cleavage of 0.98.
With G75A A129G the self-cleavage was 1.61.
A77G A142G showed a self-cleavage of 2.14.
For C84U, the self-cleavage was 0.14.
U62A U87A showed a self-cleavage of 0.04.
Variant A64U C123U has a self-cleavage of 0.41.
A117G G126A gave a self-cleavage of 1.96.
Work on U9C U26C yielded a self-cleavage of 1.35.
Work on U47C U73C yielded a self-cleavage of 1.55.
With C19U A94G the self-cleavage was 0.29.
In the case of G72U C113U, the self-cleavage is reported as 1.15.
Work on G86A A117G yielded a self-cleavage of 0.09.
A78U U108C showed a self-cleavage of 2.87.
C3U U73A showed a self-cleavage of 0.91.
Variant U13A U132G has a self-cleavage of 0.6.
Work on G33U U132G yielded a self-cleavage of 1.74.
In the case of U9G U96A, the self-cleavage is reported as 0.
U96A U119A showed a self-cleavage of 0.09.
